# Measurements reported in patent US20190135911A1, “TREATING RESPIRATORY DISEASES BY TARGETING INTERLEUKIN 4 INDUCED 1 (IL4I1)” (Five Prime Therapeutics, Inc., priority 2016, published 2019).
# Entries after “also recorded” stand apart in the source; their conditions may differ.
# Test system: moDCs in co-culture with bronchial epithelial cells from COPD patients
# Assay: moDC / COPD bronchial epithelial cell co-culture treated with IL4I1, DC mRNA levels (Quantigene multiplex panel)
# Assay type: cell-based, human
# Details: IL4I1 serially diluted into basolateral media; 24 hr BEC pre-incubation, 24 hr co-culture with DCs (COPD donor #AB63); normalized to GAPDH; FIG. 2
# From the text: To differentiate airway epithelium in vitro, healthy smoker derived bronchial epithelial cells (Lonza lot #7F3833, 489, 237440, 899; Epithelix lot #13086) and COPD patient derived bronchial epithelial cells (Lonza lot #3313, 498, 3207, 3379; Epithelix lot #AB63, 472) were expanded according to the Lonza protocol with the following modification: the cells were subjected to two passages in Lonza BEBM media with supplements as reported in Widdicombe et al. (BioTechniques 39:249-255, August 2005). Cells were seeded onto collagen coated 0.4 um 96 transwell plates at 15,000 cells per 75 μl of the above media, and 235 μl of the same media was added to the basolateral receiver plate. After 3 days (with a single apical media change of the same volume), the apical media was completely removed in an airlift. To induce differentiation the cells were then cultured for 18 days with PneumaCult-ALI Medium (StemCell Technologies, #05001).
# DC were generated as follows. […] After 48 hrs of cell culture, DC were lysed and mRNA levels were measured by microarray. […]
# Co-cultures were initiated as described above. […] After 24 hr coculture the DCs were lysed and mRNA levels were measured with an Affymetrix Quantigene multiplex panel on a FlexMap 3D instrument. For each gene the relative luminescence was normalized to a housekeeper gene GAPDH.
molecule,measurement,value
"IL4I1: Human IL4I1 protein (R&D Systems #5684-AO) added to the co-culture media (protein, UniProt Q96RQ9 22-567, looked up) L-amino-acid oxidase: QDWKAERSQDPFEKCMQDPDYEQLLKVVTWGLNRTLKPQRVIVVGAGVAGLVAAKVLSDAGHKVTILEADNRIGGRIFTYRDQNTGWIGELGAMRMPSSHRILHKLCQGLGLNLTKFTQYDKNTWTEVHEVKLRNYVVEKVPEKLGYALRPQEKGHSPEDIYQMALNQALKDLKALGCRKAMKKFERHTLLEYLLGEGNLSRPAVQLLGDVMSEDGFFYLSFAEALRAHSCLSDRLQYSRIVGGWDLLPRALLSSLSGLVLLNAPVVAMTQGPHDVHVQIETSPPARNLKVLKADVVLLTASGPAVKRITFSPPLPRHMQEALRRLHYVPATKVFLSFRRPFWREEHIEGGHSNTDRPSRMIFYPPPREGALLLASYTWSDAAAAFAGLSREEALRLALDDVAALHGPVVRQLWDGTGVVKRWAEDQHSQGGFVVQPPALWQTEKDDWTVPYGRIYFAGEHTAYPHGWVETAVKSALRAAIKINSRKGPASDTASPEGHASDMEGQGHVHGVASSPSHDLAKEEGSHPPVQGQLSLQNTTHTRTSH","mRNA expression of dendritic cell genes (CXCL5, PTGES, S100A8, SERPINB2, THBS1)",enhanced mRNA expression; also recorded: further enhances the expression
